Laboratory results as given in PMC7865249.

Experiments:
[1] = biological target: H111A HupZ-V5-His6 (Streptococcus pyogenes (Group A Streptococcus)); assay: SEC; protein reconstituted with 1.2 eq hemin and desalted, 200 uM, 1 mL injected; Superdex Increase 200 10/300 GL, 20 mM Tris-HCl, 50 mM NaCl, pH 7.4, 0.4 mL/min; mass from a calibration curve of standards
[2] = biological target: H111A HupZ-V5-His6 (Streptococcus pyogenes (Group A Streptococcus)); assay: SEC; ligand-free protein, 200 uM, 1 mL injected; Superdex Increase 200 10/300 GL, 20 mM Tris-HCl, 50 mM NaCl, pH 7.4, 0.4 mL/min; mass from a calibration curve of standards
[3] = biological target: HupZ-V5-His6 (heme utilization protein Z with a C-terminal V5-His6 tag) (Streptococcus pyogenes (Group A Streptococcus)); assay: SEC; protein reconstituted with 1.2 eq hemin and desalted, 200 uM, 1 mL injected; Superdex Increase 200 10/300 GL, 20 mM Tris-HCl, 50 mM NaCl, pH 7.4, 0.4 mL/min; mass from a calibration curve of standards
[4] = biological target: HupZ-V5-His6 (heme utilization protein Z with a C-terminal V5-His6 tag) (Streptococcus pyogenes (Group A Streptococcus)); assay: SEC; ligand-free protein, 200 uM, 1 mL injected; Superdex Increase 200 10/300 GL, 20 mM Tris-HCl, 50 mM NaCl, pH 7.4, 0.4 mL/min; mass from a calibration curve of standards

Substance | stoichiometry N [1] | stoichiometry N [2] | stoichiometry N [3] | stoichiometry N [4]
H111A HupZ-V5-His6 (natural protein) | 2 | 2 |  | 
HupZ-V5-His6 (heme utilization protein Z with a C-terminal V5-His6 tag) (natural protein) |  |  | 2 | 2
